What all share (assay): SPR
A general note: Surface plasmon resonance follows binding to a sensor surface in real time, without labels.

Test [1] deals with WO2_VH/20.1_VL rFab (mouse | human).
Test [2] has as its target gWO2_VH/WO2_VL rFab (mouse | human).
Test [3] deals with WO2 (Y58>A) mutant rFab (mouse | human).
For test [4], the target named is 20.1_VH/WO2_VL rFab (mouse | human).
The target of test [5] is WO2_VH/gWO2_VL rFab (mouse | human).
Test [6] deals with gWO2 rFab (mouse | human).
Test [7] deals with biotinylated Aβ1–42 high molecular weight (HMW) soluble oligomers (human).
For test [8], the target named is biotinylated Aβ1–16 peptide (human).

Regarding “Aβ1–16-Im7 fusion protein (domain or fragment)”, the Kd came to 41 nM in test [1]; 79 nM in test [2]; 4900 nM in test [3]; 2.8 nM in test [4]; 349 nM in test [5]; 21300 nM in test [6]. Further, the koff turned out to be 0.0614 s⁻¹ in test [1], 0.026 s⁻¹ in test [2], 0.0015 s⁻¹ in test [4] and 0.145 s⁻¹ in test [5]. In addition, the kon in test [1] was found to be 1.5e+06 M⁻¹ s⁻¹; in test [2] it was 330000 M⁻¹ s⁻¹; in test [4], 540000 M⁻¹ s⁻¹; in test [5] it was 390000 M⁻¹ s⁻¹.

B1: WO2/10D5_HCDR3 rFab (Fab, V domains shown)
VH: VTLKESGPGLLKPSQTLSLTCSFSGFSIRTSKVGVSWIRQPSGKGLEWLAHIYWDDDKRYNPSLESRLTISKDTSRDMVFMKITSVDTADTATYYCVRRPITPVLVDAMDYWGQGTTLTVSS
VL: DVLMTQTPLSLPVNLGEQASISCRSSQSIVHSNGHTYLEWYLQRPGQSPKLLIYQVSTRFSGVPDRFSGSGSGTDFTLRISRVEAEDLGVYYCFQASLVPLTFGAGTKLELK
In test [7], B1 gave a Kd of 89.2 nM and a koff of 0.00546 s⁻¹. In test [8], this molecule registered an equilibrium dissociation constant (Kd) of 154 nM and a koff of 0.00974 s⁻¹.

B2: WO2/12A11_HCDR3 rFab (Fab, V domains shown)
VH: VTLKESGPGLLKPSQTLSLTCSFSGFSIRTSKVGVSWIRQPSGKGLEWLAHIYWDDDKRYNPSLESRLTISKDTSRDMVFMKITSVDTADTATYYCARRTTTADYFAYWGQGTTLTVSS
VL: B1 VL
In test [7], B2 gave a Kd of 135 nM, a koff of 0.0261 s⁻¹ and an association rate constant (kon) of 133000 M⁻¹ s⁻¹. Moreover, in test [8], the Kd was 262 nM, the koff came out at 0.0449 s⁻¹ and the association rate constant (kon) amounted to 171000 M⁻¹ s⁻¹.

Broadly, the Kd is a measure of binding affinity in units of concentration. The low end stands for tighter binding, the high end for weaker binding. Broadly, the koff is a measure of how fast the partners let go of each other. Low values mean slow dissociation, high ones fast dissociation. Broadly, the kon is the second-order rate constant of association. A high value points to fast association.

The record behind these values is article PMC3039135.
